Publication PMC8514532 (2021)

Molecular target: PopP2 (149-488), AVI-tagged and biotinylated, the 'WT' of the BLI assay (Ralstonia solanacearum, UniProt Q8Y125 149-488)
Experiment: BLI

B1: WRKY DNA-binding domain of the Arabidopsis RRS1-R immune receptor (domain or fragment)
chain: SESKVKKVVSIPAIDEGDLWTWRKYGQKDILGSRFPRGYYRCAYKFTHGCKATKQVQRSETDSNMLAITYLSEHNHPRPT
- Kd: 13 nM
